Data: patent US20160251695

T1: α-fructosyl-valyl-histidyl-leucyl-threonyl-proryl-glutamic acid
T1 chain: VHLTPE

T2: α-fructosyl-valyl-histidine
T2 chain: VH


Assays:
[1] = target: T1, α-fructosyl-valyl-histidyl-leucyl-threon …; conditions: for αF6P oxidation activity: scale: relative value
[2] = target: hemoglobin A1c, P68871
[3] = target: T2, α-fructosyl-valyl-histidine

Chain of hemoglobin A1c, P68871 (P68871 2-147, chain 1 of 2): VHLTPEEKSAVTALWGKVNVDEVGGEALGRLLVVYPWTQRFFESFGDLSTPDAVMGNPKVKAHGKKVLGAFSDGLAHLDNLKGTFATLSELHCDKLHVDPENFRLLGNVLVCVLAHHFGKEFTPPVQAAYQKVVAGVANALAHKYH
Chain of hemoglobin A1c, P68871 (chain, as listed by the source, chain 2 of 2): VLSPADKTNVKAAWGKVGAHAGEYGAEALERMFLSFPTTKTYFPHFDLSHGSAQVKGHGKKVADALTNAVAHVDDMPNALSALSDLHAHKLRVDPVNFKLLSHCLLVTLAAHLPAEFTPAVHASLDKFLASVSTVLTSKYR

Protein | αF6P oxidation activity [1] | Specific activity (U/mg), 1 mM αF6P [1] [U/mg] | Specific activity (U/mg), 1 mM αFVH [3] [U/mg] | further results
Cc95FX-62D/63H/106K/110L/113K/353S (protein) MAPSRANTSVIVVGGGGTIGSSTALHLVRSGYTPSNITVLDAYPIPSSQSAGNDLNKIMGIDHRNKVDLQLSLEARQMWREDDLFKEYFHNTGRLDCAHGEEGLAKLRQLYQKLLDANAGLEETTEWLDSEDEILKKMPLLSRDQIKGWKAVYSQDGGWLAAAKAINAIGEYLRAQGVKFGFGGAGSFKQPLLAEGVCIGVETVDGTRYYADKVVLAAGAWSPTLVELHEQCVSKAWVYGHIQLTPEEAAEYKNSPVVYNGDVGFFFEPNEHGVIKVCDEFPGFTRFKMHQPFGAKAPKRISVPRSHAKHPTDTIPDASEKSIRKAIATFLPKFTEKELFNRHLCWCTDTADSALLICEHPEWKNFVLATGDSGHSFKLLPNIGKHVVELLEGTLADDLAHAWRWRPGSGDALKSRRSAPAKDLADMPGWKHDDVVKSKL | 237 |  |  | 
CFP-DH2 (protein) MTSNRADTRVIVVGGGGTIGSSTALHLVRSGYAPANITVLDTFPIPSAQSAGHDLNKIMGIDHRNKVNLQMSLEARQMWKEDELFQPFFHNTGRMDCEHTPKGIEKLKKLYQKLHDAGAGLEKTHAWLDNEDAILSKMPLLQRDQIQGWKAIWSQDGGWLAAAKAINAIGQFLKERGVKFGFGGAGSFKQPLFDDEGTTCIGVETADGTKYYADKVVLAAGAWSPTLVDLEDQCCSKAWVYAHIQLTPEEAAKYKGCPVVYHGEFGFFFEPDEFGVIKVCDEFPGFSRFKEHQPYGAPSPKRISVPRSHAKHPTDTYPDASEVSIKKAIATFLPRFKDKPLFNRALCWCTDTADSTLLMCEHPKWKNFILATGDSGHSFKILPNVGKYVVELIEGRLPEEMAYQWRWRPGGDALKSRRAAPPKDLADMPGWKHD |  | 5.3 |  | ΔA at 751 nm against HbA1c concentration; cationic-surfactant-treated sample (Reagent G1 or G2) [2]: In both cases where the sample was diluted with either Reagent G1 or Reagent G2, a good correlation was established between the HbA1c concentration and ΔA
CFP-T7 (protein) MTSNRADTRVIVVGGGGTIGSSTALHLVRSGYAPANITVLDTFEIPSAQSAGHDLNKIMGIRLRNKVDLQMSLEARQMWKEDELFQPFFHNTGRMDCEHTPEGIEDLKKQYQALHDAGAGLEKTHAWLDNEDEILSKMPLLQRDQIQGWKAIWSQDGGWLAAAKAINAIGQFLKERGVKFGFGGAGSFKQPLFDDEGTTCIGVETADGTKYYADKVVLAAGAWSPTLVDLEDQCCSKAWVYAHIQLTPEEAAEYKGVPVVYNGEFGFFFEPDEFGVIKVCDEFPGFSRFKEHQPYGAPSPKRISVPRSHAKHPTDTYPDASEVSIKKAIATFLPRFQDKELFNRALCWCTDTADAALLMCEHPKWKNFILATGDSGHSFKILPNVGKYVVELIEGRLPEEMAYQWRWRPGGDALKSRRAAPPKDLADMPGWKHDPKL | 0 | 0 | 16.5 | ΔA at 751 nm (hydrogen peroxide generated upon oxidation of the HbA1c β-chain amino terminus) against HbA1c concentration; heat-treated sample [2]: When Reagent C2 was used, however, no correlation was observed between the HbA1c concentration and ΔA; αFVH oxidation activity [3]: CFP-T7 exhibited αFV oxidation activity and αFVH oxidation activity
CFP-T7-H1 (protein) MTSNRADTRVIVVGGGGTIGSSTALHLVRSGYAPANITVLDTFEIPSAQSAGHDLNKIMGIALRNKVDLQMSLEARQMWKEDELFQPFFHNTGRMDCEHTPEGIEDLKKQYQALHDAGAGLEKTHAWLDNEDEILSKMPLLQRDQIQGWKAIWSQDGGWLAAAKAINAIGQFLKERGVKFGFGGAGSFKQPLFDDEGTTCIGVETADGTKYYADKVVLAAGAWSPTLVDLEDQCCSKAWVYAHIQLTPEEAAEYKGVPVVYNGEFGFFFEPDEFGVIKVCDEFPGFSRFKEHQPYGAPSPKRISVPRSHAKHPTDTYPDASEVSIKKAIATFLPRFQDKELFNRALCWCTDTADAALLMCEHPKWKNFILATGDSGHSFKILPNVGKYVVELIEGRLPEEMAYQWRWRPGGDALKSRRAAPPKDLADMPGWKHDPKL | 0.0316 |  |  | αFVH oxidation activity [3]: exhibited αF6P oxidation activity, in addition αFV oxidation activity and αFVH oxidation activity
CFP-T7-62D (protein) MTSNRADTRVIVVGGGGTIGSSTALHLVRSGYAPANITVLDTFEIPSAQSAGHDLNKIMGIDLRNKVDLQMSLEARQMWKEDELFQPFFHNTGRMDCEHTPEGIEDLKKQYQALHDAGAGLEKTHAWLDNEDEILSKMPLLQRDQIQGWKAIWSQDGGWLAAAKAINAIGQFLKERGVKFGFGGAGSFKQPLFDDEGTTCIGVETADGTKYYADKVVLAAGAWSPTLVDLEDQCCSKAWVYAHIQLTPEEAAEYKGVPVVYNGEFGFFFEPDEFGVIKVCDEFPGFSRFKEHQPYGAPSPKRISVPRSHAKHPTDTYPDASEVSIKKAIATFLPRFQDKELFNRALCWCTDTADAALLMCEHPKWKNFILATGDSGHSFKILPNVGKYVVELIEGRLPEEMAYQWRWRPGGDALKSRRAAPPKDLADMPGWKHDPKL |  | 0.018 | 1.62 | specific activity on αF6P, fold over PnFX (Comparative Example 3) [1]: 2 times (Amadoriase 26/Comparative Example 3)
CFP-T7-H4 (protein) MTSNRADTRVIVVGGGGTIGSSTALHLVRSGYAPANITVLDTFEIPSAQSAGHDLNKIMGIALRNKVDLQMSLEARQMWKEDELFQPFFHNTGRMDCEHTPEGIEDLKKYYQALHDAGAGLEKTHAWLDNEDEILSKMPLLQRDQIQGWKAIWSQDGGWLAAAKAINAIGQFLKERGVKFGFGGAGSFKQPLFDDEGTTCIGVETADGTKYYADKVVLAAGAWSPTLVDLEDQCCSKAWVYAHIQLTPEEAAEYKGVPVVYNGEFGFFFEPDEFGVIKVCDEFPGFSRFKEHQPYGAPSPKRISVPRSHAKHPTDTYPDASEVSIKKAIATFLPRFQDKELFNRALCWCTDTADAALLMCEHPKWKNFILATGDSGHSFKILPNVGKYVVELIEGRLPEEMAYQWRWRPGGDALKSRRAAPPKDLADMPGWKHDPKL | 0.0341 |  |  | 
CFP-T7-H35 (protein) MTSNRADTRVIVVGGGGTIGSSTALHLVRSGYAPANITVLDTFEIPSAQSAGHDLNKIMGIDHRNKVDLQMSLEARQMWKEDELFQPFFHNTGRMDCEHTPKGIEKLKKLYQKLHDAGAGLEKTHAWLDNEDEILSKMPLLQRDQIQGWKAIWSQDGGWLAAAKAINAIGQFLKERGVKFGFGGAGSFKQPLFDDEGTTCIGVETADGTKYYADKVVLAAGAWSPTLVDLEDQCCSKAWVYAHIQLTPEEAAEYKGVPVVYNGEFGFFFEPDEFGVIKVCDEFPGFSRFKEHQPYGAPSPKRISVPRSHAKHPTDTYPDASEVSIKKAIATFLPRFQDKELFNRALCWCTDTADSALLMCEHPKWKNFILATGDSGHSFKILPNVGKYVVELIEGRLPEEMAYQWRWRPGGDALKSRRAAPPKDLADMPGWKHDPKL |  | 4.27 | 1.9 | ΔA at 751 nm (hydrogen peroxide generated upon oxidation of the HbA1c β-chain amino terminus) against HbA1c concentration; heat-treated sample [2]: When Reagent C1 was used, a good correlation was established between the HbA1c concentration and ΔA; ΔA at 751 nm against HbA1c concentration; acid-treated sample (Reagent D1 or D2, Reagent F1) [2]: In both cases where the sample was diluted with either Reagent D1 or Reagent D2, a good correlation was established between the HbA1c concentration and ΔA; specific activity on αF6P, fold over FAOAo2 (Comparative Example 2) [1]: 1.940 times (Amadoriase 25/Comparative Example 2); αF6P oxidation activity ratio (relative value (CFP-T7-H28 = 100)) [1]: 206
CFP-T7-H21 (protein) MTSNRADTRVIVVGGGGTIGSSTALHLVRSGYAPANITVLDTFEIPSAQSAGHDLNKIMGIDLRNKVDLQMSLEARQMWKEDELFQPFFHNTGRMDCEHTPEGIEKLKKLYQRLHDAGAGLEKTHAWLDNEDEILSKMPLLQRDQIQGWKAIWSQDGGWLAAAKAINAIGQFLKERGVKFGFGGAGSFKQPLFDDEGTTCIGVETADGTKYYADKVVLAAGAWSPTLVDLEDQCCSKAWVYAHIQLTPEEAAEYKGVPVVYNGEFGFFFEPDEFGVIKVCDEFPGFSRFKEHQPYGAPSPKRISVPRSHAKHPTDTYPDASEVSIKKAIATFLPRFQDKELFNRALCWCTDTADAALLMCEHPKWKNFILATGDSGHSFKILPNVGKYVVELIEGRLPEEMAYQWRWRPGGDALKSRRAAPPKDLADMPGWKHDPKL | 20.8 | 0.795 | 4.05 | 
CFP-T7-H3 (protein) MTSNRADTRVIVVGGGGTIGSSTALHLVRSGYAPANITVLDTFEIPSAQSAGHDLNKIMGIALRNKVDLQMSLEARQMWKEDELFQPFFHNTGRMDCEHTPEGIEDLKKFYQALHDAGAGLEKTHAWLDNEDEILSKMPLLQRDQIQGWKAIWSQDGGWLAAAKAINAIGQFLKERGVKFGFGGAGSFKQPLFDDEGTTCIGVETADGTKYYADKVVLAAGAWSPTLVDLEDQCCSKAWVYAHIQLTPEEAAEYKGVPVVYNGEFGFFFEPDEFGVIKVCDEFPGFSRFKEHQPYGAPSPKRISVPRSHAKHPTDTYPDASEVSIKKAIATFLPRFQDKELFNRALCWCTDTADAALLMCEHPKWKNFILATGDSGHSFKILPNVGKYVVELIEGRLPEEMAYQWRWRPGGDALKSRRAAPPKDLADMPGWKHDPKL | 0.0298 |  |  | 
CFP-T7-H20 (protein) MTSNRADTRVIVVGGGGTIGSSTALHLVRSGYAPANITVLDTFEIPSAQSAGHDLNKIMGIDLRNKVDLQMSLEARQMWKEDELFQPFFHNTGRMDCEHTPEGIEKLKKLYQKLHDAGAGLEKTHAWLDNEDEILSKMPLLQRDQIQGWKAIWSQDGGWLAAAKAINAIGQFLKERGVKFGFGGAGSFKQPLFDDEGTTCIGVETADGTKYYADKVVLAAGAWSPTLVDLEDQCCSKAWVYAHIQLTPEEAAEYKGVPVVYNGEFGFFFEPDEFGVIKVCDEFPGFSRFKEHQPYGAPSPKRISVPRSHAKHPTDTYPDASEVSIKKAIATFLPRFQDKELFNRALCWCTDTADAALLMCEHPKWKNFILATGDSGHSFKILPNVGKYVVELIEGRLPEEMAYQWRWRPGGDALKSRRAAPPKDLADMPGWKHDPKL | 20.5 | 0.85 | 4.28 | αF6P oxidation activity ratio (relative value (CFP-T7-H20 = 100)) [1]: 100
EFP-T5-62D/63H/106K/110L/113K/355S (protein) MAHSRASTKVVVVGGGGTIGSSTALHLIRSGYTPSNITVLDVYKTPSLQSAGHDLNKIMGIDHRNGPDLQLSLESLDMWQNDELFKPFFHQVGMIDCSSSKEGIEKLRRLYQKLLDAGIGLEKTNVWLESEDEILAKAPNFTREQVKGWKGLFCTDGGWLAAAKAINAIGIFLQDKGVKFGFGDAGTFQQPLFAADGKTCIGLETTDGTKYFADKVVLAAGAWSPTLVDLEDQCVSKAWVFAHIQLTPKEADAYKNVPVVYDGEYGFFFEPDEYGVIKVCDEFPGFSRFKLHQPYGAASPKMISVPRSHAKHPTDTYPDASEVTIRKAIARFLPEFKDKELFNRTMCWCTDTADSNLLICEHPKWKNFILATGDSGHSFKLLPNIGKYVVELLEGSLSQEMAGAWRWRPGGDALRSRRGAPAKDLAEMPGWKHDAHL |  | 1.12 |  | ΔA at 751 nm against HbA1c concentration; acid-treated sample (Reagent D1, Reagent F2) [2]: Amadoriase 28 from EFP-T5 exhibiting high specific activity on αF6P was also found to act directly on HbA1c (FIG. 6-3)
